Measurements taken from patent US5972599, “High affinity nucleic acid ligands of cytokines” (NeXstar Pharmaceuticals, Inc.).

Biological target: T1, IL-4 (Homo sapiens, UniProt P05112 P05112:25-153)
Test: filter; group 2 stated to bind IL-4
Details: tags: R&D Systems

T1 sequence (P05112 25-153, one chain of several): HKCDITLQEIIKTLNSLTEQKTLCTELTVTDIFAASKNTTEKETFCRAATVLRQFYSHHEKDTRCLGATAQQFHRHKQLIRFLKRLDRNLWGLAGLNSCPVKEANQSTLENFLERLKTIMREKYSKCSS

Binder | binding result
IL-4 2'F/NH2-43 (ssRNA, 2'-F C, 2'-NH2 U) RNA: GGGAGACAAGAAUAAACGCUCAACAACGCUGACCAUGGGAGGAAUGUGGGAAGGGCGCCAGCGUUCGACAGGAGGCUCACAACAGGC | binds
IL-4 2'F/NH2-16 (ssRNA, 2'-F C, 2'-NH2 U) RNA: GGGAGACAAGAAUAAACGCUCAAGGUACGACCAAGGAAUGUGGGUGGAAGAGGGCGCCGUACCUUCGACAGGAGGCUCACAACAGGC | binds
IL-4 2'F/NH2-11 (ssRNA, 2'-F C, 2'-NH2 U) RNA: GGGAGACAAGAAUAAACGCUCAAGGUACGACCAAGGAAUGUGGGUGGAAGAGGGUGCCGUACCUUCGACAGGAGGCUCACAACAGGC | binds
IL-4 2'F/NH2-2 (ssRNA, 2'-F C, 2'-NH2 U) RNA: GGGAGACAAGAAUAAACGCUCAAGACGAACGACCAAGGGACGGGUGGGCAAAUAGGGAUGCCGUUCGACAGGAGGCUCACAACAGGC | binds
IL-4 2'F/NH2-14 (ssRNA, 2'-F C, 2'-NH2 U) RNA: GGGAGACAAGAAUAAACGCUCAACAGCCAAGGGUUGGAUAGGGGGUAGGGAGCCGUAGCAGCGUUCGACAGGAGGCUCACAACAGGC | binds

Biological target: T2, TNF-alpha (Homo sapiens, UniProt P01375 P01375:77-233)
Test: filter; class I
Details: tags: Genzyme or R&D Systems; chain copies: 3 inferred

T2 sequence (P01375 77-233, one chain of several): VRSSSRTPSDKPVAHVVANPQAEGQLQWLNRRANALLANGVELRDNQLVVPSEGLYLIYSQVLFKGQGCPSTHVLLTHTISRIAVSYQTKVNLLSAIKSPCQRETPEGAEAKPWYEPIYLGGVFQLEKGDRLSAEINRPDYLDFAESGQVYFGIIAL

Binder | Kd [nM]
TNF 10C (ssRNA) RNA: GGGAGCUCAGAAUAAACGCUCAACGCCGAGACCCACCUCAUAACACCGCUACCUUCGACAUGAGGCCCGGAUCCGGC | 500
TNF 12C (ssRNA) RNA: GGGAGCUCAGAAUAAACGCUCAAGUCCGCAUGAUGCUUCGAACAGCAUACAACUUCGACAUGAGGCCCGGAUCCGGC | 690
TNF 8A (ssRNA) RNA: GGGAGCUCAGAAUAAACGCUCAACAGUGGAGGCUGUCCAAACCCACCCACCCCUUCGACAUGAGGCCCGGAUCCGGC | 785

Biological target: T2, TNF-alpha
Test: filter; 2'F version
Details: tags: Genzyme or R&D Systems; chain copies: 3 inferred

Binder | Kd [nM]
TNF 4A 2'F (ssRNA, 2'-F all C and U) RNA: GGGAGCUCAGAAUAAACGCUCAACGCACUCGGACGGAAUCUCCGUAGGACACGUUCGACAUGAGGCCCGGAUCCGGC | 178
TNF 25A 2'F (ssRNA, 2'-F all C and U) RNA: GGGAGCUCAGAAUAAACGCUCAAGGCCGCAUGCCCCUCCUAACAGCAUGCAACUUCGACAUGAGGCCCGGAUCCGGC | 445
TNF 8C 2'F (ssRNA, 2'-F all C and U) RNA: GGGAGCUCAGAAUAAACGCUCAAGUCCACACUUUGCCGAGCGUCCUAGUGUUCGACAUGAGGCCCGGAUCCGGC | 503
TNF 7C 2'F (ssRNA, 2'-F all C and U) RNA: GGGAGCUCAGAAUAAACGCUCAACAGGUGGCACCGCCCUUCCAACACGGUGCGUUCGACAUGAGGCCCGGAUCCGGC | 442
TNF 9C 2'F (ssRNA, 2'-F all C and U) RNA: GGGAGCUCAGAAUAAACGCUCAAAUGGUGGAGGCCAUCUCAAACCCACGACACUUCGACAUGAGGCCCGGAUCCGGC | 400
TNF 3A 2'F (ssRNA, 2'-F all C and U) RNA: GGGAGCUCAGAAUAAACGCUCAAGAUCGACGCAUCGAGUCGCCUCAUCGCUCCUUCGACAUGAGGCCCGGAUCCGGC | 623

Biological target: T1, IL-4
Test: filter; full-length
Details: tags: R&D Systems

Binder | Kd [nM]
IL-4 2'F-21 (ssRNA, 2'-F all C and U) RNA: GGGAGACAAGAAUAAACGCUCAAAGGAGCGCCAUGAAGCAAAGGGAGGAUUGUGGUGGAAGGCUUCGACAGGAGGCUCACAACAGGC | 11
IL-4 2'F-12 (ssRNA, 2'-F all C and U) RNA: GGGAGACAAGAAUAAACGCUCAAGUCUGACUAUUGGGGCGCCACAAUAUCAACGGCUGUACUUCGACAGGAGGCUCACAACAGGC | 30
IL-4 2'NH2-29 (ssRNA, 2'-NH2 all C and U) RNA: GGGAGACAAGAAUAAACGCUCAAGAGCUGGUGAGCCACGUAUACGGCCUUAGGGGCUUGGGCGUUCGACAGGAGGCUCACAACAGGC | 8.3
IL-4 2'F/NH2-18 (ssRNA, 2'-F all C, 2'-NH2 all U) RNA: GGGAGACAAGAAUAAACGCUCAACCGCCUGCGAUAGUUAGACCGUUGAGCUGAGAGCAACACUUUCGACAGGAGGCUCACAACAGGC | 30
IL-4 2'F-18 (ssRNA, 2'-F all C and U) RNA: GGGAGACAAGAAUAAACGCUCAAGCUGCCCAAGGAAUUUAACUUGGACCGCGAUCUGGAGUCUUCGACAGGAGGCUCACAACAGGC | 43
IL-4 2'F/NH2-28 (ssRNA, 2'-F all C, 2'-NH2 all U) RNA: GGGAGACAAGAAUAAACGCUCAAGAUCCUGCGACGCCAGGGGUGGAUAGGGGGAAGGGAGCGGUUCGACAGGAGGCUCACAACAGGC | 8.7

Biological target: T2, TNF-alpha
Test: filter; no value shown, Kd above 1 uM per footnote; DPBS
Details: tags: Genzyme or R&D Systems; chain copies: 3

Binder | Kd [nM]
TNF 6C (ssRNA) RNA: GGGAGCUCAGAAUAAACGCUCAAUGUCGCACGUGUCCCGGCCCGCCCUACCCCUUCGACAUGAGGCCCGGAUCCGGC | > 1000
TNF 19A (ssRNA) RNA: GGGAGCUCAGAAUAAACGCUCAAGUCGAUGCGCAGUCCGCCUCAGCUGCACUGUUCGACAUGAGGCCCGGAUCCGGC | > 1000
TNF 16A (ssRNA) RNA: GGGAGCUCAGAAUAAACGCUCAAGGUGGAAGGCCUUUGAAGCCCGUACAUCUCCUUCGACAUGAGGCCCGGAUCCGGC | > 1000
TNF 26A (ssRNA) RNA: GGGAGCUCAGAAUAAACGCUCAACCCUCGUGCGUGCGCUUGGAGCGUGGCGCAUUCGACAUGAGGCCCGGAUCCGGC | > 1000
TNF 17C (ssRNA) RNA: GGGAGCUCAGAAUAAACGCUCAAGAUCGAAGUUGUCGUCCGCCUCAGCGACUCUUCGACAUGAGGCCCGGAUCCGGC | > 1000
TNF 21A (ssRNA) RNA: GGGAGCUCAGAAUAAACGCUCAACGUCUAGGAACUGCGUCGCCUCAACAGCGCUUCGACAUGAGGCCCGGAUCCGGC | > 1000
TNF 27A (ssRNA) RNA: GGGAGCUCAGAAUAAACGCUCAAGUCGCUCGAUCGUUUCAUGUCCGUUCGACCUUCGACAUGAGGCCCGGAUCCGGC | > 1000
TNF 17A (ssRNA) RNA: GGGAGCUCAGAAUAAACGCUCAAGGUCGAACUAGCGCUGGAGCGUGCGUUGGUUUCGACAUGAGGCCCGGAUCCGGC | > 1000
TNF 5C (ssRNA) RNA: GGGAGCUCAGAAUAAACGCUCAACAGUCACGAACGUGCGCCGGAAGAACGCUCUUCGACAUGAGGCCCGGAUCCGGC | > 1000
TNF 22A (ssRNA) RNA: GGGAGCUCAGAAUAAACGCUCAAGUCGGAUGGUUUUGCGCGUUUCCCGUUCGACAUGAGGCCCGGAUCCGGC | > 1000
TNF 15A (ssRNA) RNA: GGGAGCUCAGAAUAAACGCUCAACGUCGAUCGCGUGCUGUAGCCUCAGGCACCUUCGACAUGAGGCCCGGAUCCGGC | > 1000
